The values that follow come from PMC6478713, “Structural insight into YcbB-mediated beta-lactam resistance in Escherichia coli” (Nature Communications, 2019).

In general, Kd refers to a measure of binding affinity in units of concentration. The low end stands for a tighter complex, the high end for a looser complex.

Assay [1] deals with T1, Escherichia coli PBP1b from residue 58 onward, styrene-maleic acid co-polymer solubilised, fluorescently … (Escherichia coli, UniProt P02919 58-844, Alexa Fluor 647 NHS Ester label (sites not given)).
T1 construct: Held in styrene-maleic acid co-polymer particles; Thrombin-cleavable tag; the purification paragraph calls the removed tag N-terminal, the cloning paragraph C-terminal; also called SMA-solubilised PBP1b; not shown: His8, C-terminal, cleaved
T1 sequence: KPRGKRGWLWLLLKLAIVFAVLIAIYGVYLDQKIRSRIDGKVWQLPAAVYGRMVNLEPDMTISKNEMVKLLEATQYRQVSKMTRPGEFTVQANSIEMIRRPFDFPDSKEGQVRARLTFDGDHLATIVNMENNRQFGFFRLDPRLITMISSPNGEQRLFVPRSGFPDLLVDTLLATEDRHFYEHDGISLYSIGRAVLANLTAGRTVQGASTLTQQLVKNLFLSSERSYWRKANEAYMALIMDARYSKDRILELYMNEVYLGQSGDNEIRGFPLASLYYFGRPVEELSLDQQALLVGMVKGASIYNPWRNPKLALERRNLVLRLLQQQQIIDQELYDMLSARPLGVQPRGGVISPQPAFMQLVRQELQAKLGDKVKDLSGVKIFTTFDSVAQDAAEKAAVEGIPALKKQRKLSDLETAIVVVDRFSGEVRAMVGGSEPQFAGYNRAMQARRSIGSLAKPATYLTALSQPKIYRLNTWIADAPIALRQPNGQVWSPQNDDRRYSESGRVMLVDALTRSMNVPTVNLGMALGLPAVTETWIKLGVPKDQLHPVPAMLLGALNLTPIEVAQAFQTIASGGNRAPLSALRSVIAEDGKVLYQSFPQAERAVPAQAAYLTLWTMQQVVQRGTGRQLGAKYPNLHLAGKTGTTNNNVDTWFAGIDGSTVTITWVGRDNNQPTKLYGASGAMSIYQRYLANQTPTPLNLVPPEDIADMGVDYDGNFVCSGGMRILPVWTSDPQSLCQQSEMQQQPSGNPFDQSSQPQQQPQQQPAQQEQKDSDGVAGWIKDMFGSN
The assay is described as follows: MST; Monolith NT.115Pico; unlabelled YcbB (1.5 nM-3.1 uM) titrated into Alexa Fluor 647-labelled SMA-solubilised PBP1b at 100 nM; Buffer C; analysed using fluorescence values; binding isotherm with adjustable Hill coefficient. The following applies: both partners purified.

Assay [2] addresses T2, Escherichia coli YcbB (residue 31 onward), fluorescently labelled with Alexa Fluor 647 (Escherichia coli, UniProt P22525 31-615, Alexa Fluor 647 NHS Ester label (sites not given)).
T2 construct: L,D-transpeptidase YcbB (LdtD), E. coli, without its signal peptide (residues 1-30), residue 31 onward; Same construct as m1, labelled for the MST with PBP5; also called fluorescently labelled YcbB; source: E. coli BL21 (DE3), purified (HisTrap Ni2+, SEC Superdex 200), then labelled; not shown: His8, C-terminal, cleaved
T2 sequence: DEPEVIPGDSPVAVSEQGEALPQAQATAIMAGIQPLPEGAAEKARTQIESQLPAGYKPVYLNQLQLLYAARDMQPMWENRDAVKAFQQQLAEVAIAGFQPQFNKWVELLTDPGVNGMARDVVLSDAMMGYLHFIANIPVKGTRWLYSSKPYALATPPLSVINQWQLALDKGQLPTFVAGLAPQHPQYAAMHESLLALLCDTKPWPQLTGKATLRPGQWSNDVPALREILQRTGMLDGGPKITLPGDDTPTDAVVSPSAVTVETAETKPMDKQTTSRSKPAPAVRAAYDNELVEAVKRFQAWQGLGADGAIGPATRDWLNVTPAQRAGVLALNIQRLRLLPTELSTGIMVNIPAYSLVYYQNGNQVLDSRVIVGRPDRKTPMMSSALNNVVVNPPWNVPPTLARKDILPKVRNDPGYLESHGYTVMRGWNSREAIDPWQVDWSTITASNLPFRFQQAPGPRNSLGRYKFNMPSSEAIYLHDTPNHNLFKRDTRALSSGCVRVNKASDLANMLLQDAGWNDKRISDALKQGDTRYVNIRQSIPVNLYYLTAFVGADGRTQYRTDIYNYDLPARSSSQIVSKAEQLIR
The assay is described as follows: MST; Monolith NT.115Pico; unlabelled PBP5 (120 pM-98 uM) titrated into Alexa Fluor 647-labelled YcbB at 15 nM; Buffer C; analysed using MST; binding isotherm with adjustable Hill coefficient. The settings on record: both partners purified.

B1: Escherichia coli YcbB without its signal peptide (residue 31 onward) (enzyme)
chain: T2 sequence
notes: L,D-transpeptidase YcbB (LdtD), E. coli, without its signal peptide (residues 1-30), residue 31 onward; Unlabelled form: titrant in the MST with PBP1b and the protein that was crystallised (there acylated by meropenem on Cys528); Vector named pET41b-GST; no GST on the protein is spoken of; Thrombin-cleavable tag; the purification paragraph calls the removed tag N-terminal, the cloning paragraph …
With B1, in assay [1], the dissociation constant Kd was found to be 0.25 ± 0.03 µM.

B2: Escherichia coli PBP5 from residue 30 onward (enzyme)
chain: DDLNIKTMIPGVPQIDAESYILIDYNSGKVLAEQNADVRRDPASLTKMMTSYVIGQAMKAGKFKETDLVTIGNDAWATGNPVFKGSSLMFLKPGMQVPVSQLIRGINLQSGNDACVAMADFAAGSQDAFVGLMNSYVNALGLKNTHFQTVHGLDADGQYSSARDMALIGQALIRDVPNEYSIYKEKEFTFNGIRQLNRNGLLWDNSLNVDGIKTGHTDKAGYNLVASATEGQMRLISAVMGGRTFKGREAESKKLLTWGFRFFETVNPLKVGKEFASEPVWFGDSDRASLGVDKDVYLTIPRGRMKDLKASYVLNSSELHAPLQKNQVVGTINFQLDGKTIEQRPLVVLQEIPEGNFFGKIIDYIKLMFHHWFG
notes: HRV 3C protease-cleavable tag; the purification paragraph calls the removed tag N-terminal, the cloning paragraph C-terminal; also called D,D-carboxypeptidase PBP5; source: E. coli BL21 (DE3), purified (HisTrap Ni2+, SEC Superdex 200); not shown: His8, C-terminal, cleaved
In assay [2], B2 returned a Kd of around 2 µM.
